Laboratory results: patent publication US20250043302A1, “MUTATED HYDROXYPHENYLPYRUVATE DIOXYGENASE POLYPEPTIDE, AND CODING GENE AND USE THEREOF” (BEIJING DABEINONG BIOTECHNOLOGY CO., LTD., priority 2021, published 2025)

Assays:
Format in all cases: in vivo
[1] = system: Arabidopsis thaliana T1 plants; test: Topramezone tolerance of transgenic Arabidopsis thaliana T1 plants (spray, bleached leaf area grade, damage score); conditions: 7 DAT, Table 4; for Classification and statistics of the grade of pesticide damage: Grade 0 / Classification and statistics of the grade of pesticide damage: Grade 1 / Classification and statistics of the grade of pesticide damage: Grade 2 / Classification and statistics of the grade of pesticide damage: Grade 3: number of plants; for Scores: pesticide damage score 0-100
Summary of the method: (§1)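 Damage was assessed by bleaching grade (0 none; 1 <50%; 2 >50%; 3 100% of leaf area) one week after spraying. Sprays on 18-day-old T1 and wild-type plants used field-rate multiples: topramezone 25–200, isoxaflutole 35–280, mesotrione 52.5–420 g ai/ha.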

[2] = system: Arabidopsis thaliana T1 plants; test: Isoxaflutole tolerance of transgenic Arabidopsis thaliana T1 plants (spray, bleached leaf area grade, damage score); set-up: Scores (pesticide damage): scale not given here; conditions: spray, Arabidopsis thaliana T1 plants; for Classification and statistics of the grade of pesticide damage: Grade 0 (number of plants) / Classification and statistics of the grade of pesticide damage: Grade 1 (number of plants) / Classification and statistics of the grade of pesticide damage: Grade 2 (number of plants) / Classification and statistics of the grade of pesticide damage: Grade 3 (number of plants): 16 plants
Summary of the method: as §1

[3] = system: Arabidopsis thaliana T1 plants; test: Mesotrione tolerance of transgenic Arabidopsis thaliana T1 plants (spray, bleached leaf area grade, damage score); set-up: Scores: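 damage score 0-100 computed as Σ(N×S)/(T×M)×100 over grades 0-3 with higher meaning more damage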; conditions: Arabidopsis thaliana T1 plants; for Grade 0 (classification and statistics of the grade of pesticide damage; number of plants) / Grade 1 (classification and statistics of the grade of pesticide damage; number of plants) / Grade 2 (classification and statistics of the grade of pesticide damage; number of plants) / Grade 3 (classification and statistics of the grade of pesticide damage; number of plants): 16 plants
Summary of the method: as §1

soybean T1 plants [4] = test: Topramezone tolerance of transgenic soybean T1 plants; conditions: different concentrations
Protocol: T1 transformants were initially selected from the untransformed seeds using a glufosinate selection scheme. […] The degree of damage caused by the herbicide was measured for each plant according to the proportion of bleached leaf area (the proportion of bleached leaf area=bleached leaf area/total leaf area×100%) 7 days after spraying (7 DAT): the case where there is basically no bleached phenotype is defined as grade 0, the case where the proportion of bleached leaf area is less than 50% is defined as grade 1, the case where the proportion of bleached leaf area is more than 50% is defined as grade 2, and the case where the proportion of bleached leaf area is 100% grade is defined as grade 3.
The soybean T1 plants into which the SbHPPD-02 nucleotide sequence was introduced, soybean T1 plants into which the SbHPPDm-F372A-02 nucleotide sequence was introduced, soybean T1 plants into which the SbHPPDm-F383W-02 nucleotide sequence was introduced, soybean T1 plants into which the SbHPPDm-F372A-F383W-02 nucleotide sequence was introduced, soybean T1 plants into which the control vector DBN11726N nucleotide sequence was introduced, and wild-type soybean plants (V3-V4 at seedling stage) were sprayed with topramezone at three different concentrations (i.e., 25 g ai/ha (one-fold field concentration, 1×). […] According to the method in point 6 of Example 1, after 7 days of spraying (7 DAT), the damage degree of each plant by the herbicide was statistically analyzed, and the scoring and resistance evaluation were carried out accordingly. […]

soybean T1 plants [5] = test: Isoxaflutole tolerance of transgenic soybean T1 plants; conditions: different concentrations
soybean T1 plants [6] = test: Mesotrione tolerance of transgenic soybean T1 plants; conditions: different concentrations
[7] = isoxaflutole 35 g ai/ha (0.5x field concentration)
[8] = isoxaflutole 70 g ai/ha (1x field concentration)

B1: SbHPPDm-F372A-02: nucleotide sequence encoding Sorghum bicolor HPPD with F372A; vector DBN11759 (nucleic acid)
DNA: ATGCCGCCCACTCCAACAACTGCTGCTGCGACGGGAGCAGCTGTCGCCGCTGCTTCTGCTGAGCAGGCTGCCTTCAGGCTCGTCGGGCACAGAAATTTTGTTCGTGTAAATCCAAGGAGTGATAGGTTCCACACCTTGGCTTTTCACCACGTGGAGTTGTGGTGTGCTGATGCAGCCTCGGCAGCGGGGCGCTTCTCGTTTGGTCTCGGTGCTCCGCTCGCCGCAAGATCTGATCTTAGCACTGGAAACACAGCGCATGCCTCCCTGCTCCTGCGCTCTGGCGCGCTGGCGTTCCTCTTCACGGCGCCATATGCTCACGGCGCCGACGCCGCCACCGCGTCATTGCCGTCTTTTAGTGCAGCCGAAGCAAGAAGATTTGCAGCAGACCACGGCCTCGCCGTAAGGGCCGTGGCCTTACGTGTCGCCGATGCCGAAGATGCTTTCCGCGCCTCTGTAGCAGCTGGAGCAAGGCCAGCATTTGAACCTGTTGAATTGGGGTTAGGATTCCGTCTTGCAGAAGTTGAGCTTTATGGCGACGTTGTTTTGAGATACGTTTCATATCCTGATGACGCTGACGCTAGCTTCTTGCCTGGTTTTGTGGGGGTGACATCACCTGGGGCAGCAGATTATGGTCTCAGGCGGTTTGATCATATTGTTGGAAACGTTCCTGAACTCGCGCCGGCGGCAGCCTACTTCGCCGGTTTCACTGGGTTTCATGAATTTGCTGAATTCACAGCCGAGGATGTCGGCACCACCGAGAGTGGACTGAACTCCATGGTGCTGGCCAACAATGCAGAGAATGTCCTTCTTCCCTTGAATGAACCAGTTCATGGAACAAAAAGGCGTTCCCAAATACAAACATACCTCGACCATCATGGTGGACCAGGCGTTCAGCATATGGCTCTCGCTAGTGACGATGTTCTACGAACCCTGCGAGAGATGCAGGCGCGGTCTGCAATGGGAGGATTTGAGTTCATGGCACCTCCTGCCCCTGAATATTATGATGGTGTTCGGAGAAGGGCAGGTGATGTGCTAACTGAAGCTCAAATCAAGGAGTGCCAGGAGCTTGGCGTGCTGGTCGATCGGGATGATCAAGGTGTGCTTCTGCAGATTGCCACTAAACCAGTGGGTGACCGCCCCACGCTGTTCCTAGAGATCATCCAGAGAATAGGGTGCATGGAGAAGGACGAAAAAGGACAAGAGTACCAGAAGGGAGGTTGTGGCGGCTTTGGAAAAGGGAACTTCTCCCAATTATTCAAGTCAATTGAAGACTATGAAAAGAGTTTGGAGGCTAAGCAAGCTGCAGCCGCCCAGGGCAGCTGA
modifications: SbHPPDm-F372A-02 Nucleotide Sequence
notes: vector DBN11759
Classification and statistics of the grade of pesticide damage: Grade 0 ([1]; topramezone 25 g ai/ha (1×)): 16
Classification and statistics of the grade of pesticide damage: Grade 1 ([1]; topramezone 25 g ai/ha (1×)): 0
Classification and statistics of the grade of pesticide damage: Grade 2 ([1]; topramezone 25 g ai/ha (1×)): 0
Classification and statistics of the grade of pesticide damage: Grade 3 ([1]; topramezone 25 g ai/ha (1×)): 0
Classification and statistics of the grade of pesticide damage: Grade 0 ([1]; topramezone 100 g ai/ha (4×)): 4
Classification and statistics of the grade of pesticide damage: Grade 1 ([1]; topramezone 100 g ai/ha (4×)): 4
Classification and statistics of the grade of pesticide damage: Grade 2 ([1]; topramezone 100 g ai/ha (4×)): 8
Classification and statistics of the grade of pesticide damage: Grade 3 ([1]; topramezone 100 g ai/ha (4×)): 0
Scores ([1]; topramezone 25 g ai/ha (1×)): 0
Scores ([1]; topramezone 100 g ai/ha (4×)): 42
Resistance evaluation ([1]; topramezone 25 g ai/ha (1×)): highly
Resistance evaluation ([1]; topramezone 100 g ai/ha (4×)): poorly
Resistance evaluation [2, 7]: Poorly
Scores (pesticide damage) [2, 7]: 67
Classification and statistics of the grade of pesticide damage: Grade 0 (number of plants) [2, 7]: 0
Classification and statistics of the grade of pesticide damage: Grade 1 (number of plants) [2, 7]: 2
Classification and statistics of the grade of pesticide damage: Grade 2 (number of plants) [2, 7]: 12
Classification and statistics of the grade of pesticide damage: Grade 3 (number of plants) [2, 7]: 2
Resistance evaluation [2, 8]: Non-resistant
Scores (pesticide damage) [2, 8]: 100
Classification and statistics of the grade of pesticide damage: Grade 0 (number of plants) [2, 8]: 0
Classification and statistics of the grade of pesticide damage: Grade 1 (number of plants) [2, 8]: 0
Classification and statistics of the grade of pesticide damage: Grade 2 (number of plants) [2, 8]: 0
Classification and statistics of the grade of pesticide damage: Grade 3 (number of plants) [2, 8]: 16
Resistance evaluation ([3]; mesotrione 52.5 g ai/ha): Poorly resistant
Scores ([3]; mesotrione 52.5 g ai/ha): 60
Grade 0 (classification and statistics of the grade of pesticide damage; number of plants) ([3]; mesotrione 52.5 g ai/ha): 0
Grade 1 (classification and statistics of the grade of pesticide damage; number of plants) ([3]; mesotrione 52.5 g ai/ha): 6
Grade 2 (classification and statistics of the grade of pesticide damage; number of plants) ([3]; mesotrione 52.5 g ai/ha): 7
Grade 3 (classification and statistics of the grade of pesticide damage; number of plants) ([3]; mesotrione 52.5 g ai/ha): 3
Resistance evaluation ([3]; mesotrione 105 g ai/ha): Non-resistant
Scores ([3]; mesotrione 105 g ai/ha): 100
Grade 0 (classification and statistics of the grade of pesticide damage; number of plants) ([3]; mesotrione 105 g ai/ha): 0
Grade 1 (classification and statistics of the grade of pesticide damage; number of plants) ([3]; mesotrione 105 g ai/ha): 0
Grade 2 (classification and statistics of the grade of pesticide damage; number of plants) ([3]; mesotrione 105 g ai/ha): 0
Grade 3 (classification and statistics of the grade of pesticide damage; number of plants) ([3]; mesotrione 105 g ai/ha): 16
tolerance to HPPD-inhibitor herbicides (in words): topramezone (soybean T1 plants [4]): different degrees of tolerance
tolerance to HPPD-inhibitor herbicides (in words): isoxaflutole (soybean T1 plants [5]): different degrees of tolerance
tolerance to HPPD-inhibitor herbicides (in words): mesotrione (soybean T1 plants [6]): different degrees of tolerance
